According to the supplement of paper PMC6757056:
± gives the standard deviation of the averaged measurements.

B1: library; a variant is named by its letters at N, in order (parent)
chain: GCUGUCACCGGAAUACCAGCAUCGUCUUGAUGCCCUUGGAAGUCCGGUCUGAUGAGUCCNNNNNGGACGAAACAGC

Legend:
theophylline [1] = variants of: B1; assay: FACS-Seq fitted mean relative fluorescence mCherry/BFP without ligand (log10 relative fluorescence); higher = higher reporter protein expression; settings: HEK293T, ligand present: no
Outline: (§1)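 HEK293T libraries were lentivirally transduced with an mCherry reporter carrying the ribozyme switch and an EF1α-BFP marker, enriched, and incubated for 48 h with or without ligand before sorting into 6 bins by mCherry/BFP. Genomic DNA from each bin was PCR-amplified, barcoded and sequenced on MiSeq. Fluorescence is the fitted normal mean of the bin counts. The fit used log10(mCherry/BFP), and means were scaled to five spiked-in control ribozymes.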

theophylline [2] = variants of: B1; assay: normalized RNA/DNA level with ligand (relative to sTRSVctl = 100) (log10 (% of sTRSVctl)); higher = less ribozyme self-cleavage, higher mRNA level; settings: ligand concentration (+) RNA-Seq: 5 mM, HEK293T, reporter: mCherry (pCS4076), ligand present: yes
Outline: (§2)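 Library plasmids carrying ribozyme switches linked to mCherry, or to eGFP in some ligand experiments, were transfected into HEK293T at 4 µg per 6-well well, with any ligand added 1 h earlier. Seventy-two hours on, total RNA was extracted with EDTA and reverse-transcribed, amplified, barcoded and sequenced. RNA level was RNA over DNA reads normalized to a spiked-in non-cleaving sequence or to the top sequences, then scaled and log-transformed. The top set was 25 sequences, the transform was ×100 and log10, and sequences needed ≥100 DNA reads.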

theophylline [3] = variants of: B1; assay: normalized RNA/DNA level without ligand (relative to sTRSVctl = 100) (log10 (% of sTRSVctl)); higher = less ribozyme self-cleavage, higher mRNA level; settings: HEK293T, reporter: mCherry (pCS4076), ligand present: no
Outline: as §2

theophylline [4] = variants of: B1; assay: FACS-Seq fitted mean relative fluorescence mCherry/BFP with ligand (log10 relative fluorescence); ligand concentration (+) FACS-Seq: 1 mM; higher = higher reporter protein expression; settings: HEK293T, ligand present: yes
Outline: as §1

Variant	FACS-Seq fitted mean (log10) (theophylline [1])	normalized RNA/DNA level with ligand (log10) (theophylline [2])	normalized RNA/DNA level without ligand (log10) (theophylline [3])	FACS-Seq fitted mean (log10) (theophylline [4])
CCUUU	0.664 ± 0.036	2.046 ± 0.019	1.85 ± 0.039	0.81 ± 0.074
UGCCA	0.592 ± 0.11	1.9 ± 0.096	1.82 ± 0.068	0.481 ± 0.044
UGCCU	0.875 ± 0.16	2.08 ± 0.077	1.891 ± 0.007	0.867 ± 0.079
UGUAC	0.923 ± 0.082	1.98 ± 0.024	1.95 ± 0.045	0.851 ± 0.13
CCAAC	0.72 ± 0.09	1.952 ± 0.012	1.92 ± 0.069	0.767 ± 0.018
CCCCC	0.942 ± 0.16	2.0303 ± 0.00068	1.97 ± 0.032	0.862 ± 0.091
CCCCA	0.614 ± 0.038	2.043 ± 0.0071	1.9 ± 0.11	0.52 ± 0.035
AUCGU	0.902 ± 0.057	2.03 ± 0.13	1.93 ± 0.042	0.848 ± 0.063
ACGUA	0.721 ± 0.11	2.011 ± 0.017	1.62 ± 0.19	0.9207 ± 0.0039
AACCC	0.867 ± 0.012	2.042 ± 0.014	1.97 ± 0.031	0.862 ± 0.045
AAUUC	0.308 ± 0.094	1.981 ± 0.015	1.96 ± 0.033	0.335 ± 0.031
AAAGC	1.03 ± 0.054	2.03 ± 0.041	1.79 ± 0.043	1.04 ± 0.14
ACUGU	0.698 ± 0.1	2.027 ± 0.011	1.89 ± 0.087	0.626 ± 0.07
ACUGC	0.883 ± 0.038	2.01 ± 0.031	1.95 ± 0.058	0.793 ± 0.067
AUGGA	0.368 ± 0.04	1.94 ± 0.043	1.68 ± 0.16	0.63116 ± 0.00056
AUGGU	0.596 ± 0.13	2.02 ± 0.032	1.78 ± 0.044	0.728 ± 0.049
AUUAU	0.905 ± 0.075	2.01 ± 0.021	1.88 ± 0.097	0.861 ± 0.095
AUUAC	1.05 ± 0.17	1.99 ± 0.021	1.96 ± 0.12	0.926 ± 0.096
UAGAA	-0.0982 ± 0.13	1.91 ± 0.11	1.43 ± 0.016	0.448 ± 0.028
UAGAC	0.814 ± 0.036	1.91 ± 0.03	1.91 ± 0.09	0.723 ± 0.008
CUCAA	0.816 ± 0.072	1.99 ± 0.05	1.67 ± 0.022	0.914 ± 0.068
CUCAC	1.14 ± 0.019	2.02 ± 0.075	2.02 ± 0.13	1.12 ± 0.075
AGAGC	0.629 ± 0.05	1.89 ± 0.12	1.81 ± 0.027	0.813 ± 0.051
CCUAU	0.969 ± 0.015	2.06 ± 0.025	1.867 ± 0.0061	1.05 ± 0.031
AAGUA	0.448 ± 0.1	2 ± 0.064	1.63 ± 0.12	0.35 ± 0.062

Variant	FACS-Seq fitted mean (log10) (theophylline [1])	normalized RNA/DNA level with ligand (log10) (theophylline [2])	normalized RNA/DNA level without ligand (log10) (theophylline [3])	FACS-Seq fitted mean (log10) (theophylline [4])
ACACA	0.454 ± 0.049	1.94 ± 0.051	1.77 ± 0.036	0.653 ± 0.055
UGAGC	1.21 ± 0.082	1.9256 ± 8.8e-05	1.98 ± 0.13	1.24 ± 0.12
GCCAU	0.669 ± 0.019	1.99 ± 0.077	1.88 ± 0.12	0.779 ± 0.05
CUUAA	0.633 ± 0.018	1.98 ± 0.15	1.61 ± 0.14	0.961 ± 0.12
CUGCC	0.906 ± 0.094	2.09 ± 0.045	1.9591 ± 0.0014	0.841 ± 0.055
CAGGU	0.996 ± 0.18	2 ± 0.03	1.96 ± 0.041	0.848 ± 0.048
CAGGA	0.706 ± 0.028	2.01 ± 0.082	1.62 ± 0.25	0.799 ± 0.045
CAGGC	0.86 ± 0.039	2.06 ± 0.046	1.95 ± 0.03	0.813 ± 0.041
UUUGC		2.05 ± 0.042	1.93 ± 0.023	
UUUGU	0.965 ± 0.067	2.07 ± 0.082	2.02 ± 0.041	0.8623 ± 0.0024
CCCUA	0.768 ± 0.05	2.01 ± 0.077	1.872 ± 0.011	0.751 ± 0.022
GUAAU	0.914 ± 0.062	1.937 ± 0.015	1.82 ± 0.085	0.966 ± 0.16
AUUUU	0.213 ± 0.053	2.02 ± 0.043	1.88 ± 0.062	0.194 ± 0.022
UAAGG	0.645 ± 0.086	2.1 ± 0.067	1.89 ± 0.041	0.739 ± 0.044
UCGCC	1.03 ± 0.1	2 ± 0.095	1.872 ± 0.014	1.06 ± 0.095
GCAGU	-0.266 ± 0.054	1.97 ± 0.12	1.774 ± 0.0085	-0.0491 ± 0.075
CCCAA	0.563 ± 0.0093	2.012 ± 0.0096	1.82 ± 0.13	0.684 ± 0.021
UCAAC	0.851 ± 0.1	1.89 ± 0.03	1.79 ± 0.049	0.879 ± 0.062
UCAAG	0.7373 ± 0.0072	2.034 ± 0.0095	1.79 ± 0.16	0.974 ± 0.053
UCUAA	0.476 ± 0.055	2.03 ± 0.14	1.68 ± 0.095	0.588 ± 0.039
CACCA	0.7294 ± 0.00094	1.97 ± 0.083	1.8 ± 0.071	0.792 ± 0.053
CACCC	0.8 ± 0.07	1.92 ± 0.06	1.93 ± 0.024	0.762 ± 0.018
CACCU	0.774 ± 0.091	2.06 ± 0.075	1.78 ± 0.097	0.9241 ± 4.2e-05
UAUAC	0.747 ± 0.029	2.06 ± 0.027	1.98 ± 0.088	0.749 ± 0.0085
AAGCA	0.538 ± 0.016	2.03 ± 0.051	1.8 ± 0.033	0.682 ± 0.023

Variant	FACS-Seq fitted mean (log10) (theophylline [1])	normalized RNA/DNA level with ligand (log10) (theophylline [2])	normalized RNA/DNA level without ligand (log10) (theophylline [3])	FACS-Seq fitted mean (log10) (theophylline [4])
AAGCG	0.683 ± 0.068	2 ± 0.075	1.96 ± 0.067	0.7793 ± 0.0014
AAGCU	0.983 ± 0.1	2.05 ± 0.094	1.78 ± 0.077	1.11 ± 0.11
AUCUA	0.874 ± 0.15	1.99 ± 0.087	1.89 ± 0.12	0.828 ± 0.069
UCUUC		2.03 ± 0.1	1.97 ± 0.046	
CGAUU	0.31 ± 0.2	1.98 ± 0.13	1.51 ± 0.15	0.579 ± 0.022
CAAGA	0.32 ± 0.031	1.97 ± 0.023	1.56 ± 0.15	0.3733 ± 0.0017
CAAAU	0.264 ± 0.0079	1.946 ± 0.0043	1.6 ± 0.19	0.399 ± 0.048
GACGG	0.642 ± 0.057	1.93 ± 0.045	1.71 ± 0.11	0.887 ± 0.096
AGGCU	0.7841 ± 0.0051	1.96 ± 0.053	1.936 ± 0.007	0.847 ± 0.013
AGUUA	0.892 ± 0.082	1.87 ± 0.14	1.68 ± 0.039	1.035 ± 0.0042
ACUAA	0.266 ± 0.016	2.002 ± 0.01	1.65 ± 0.2	0.391 ± 0.0057
ACUAU	0.418 ± 0.065	1.982 ± 0.019	1.84 ± 0.13	0.461 ± 0.041
ACGCU	0.995 ± 0.016	2.08 ± 0.17	1.914 ± 0.019	1.01 ± 0.031
ACGCG	1.002 ± 0.0074	2.009 ± 0.009	1.86 ± 0.036	1.09 ± 0.058
ACAGU	0.512 ± 0.024	1.94 ± 0.057	1.65 ± 0.095	0.73 ± 0.011
ACAGC	1 ± 0.1	1.97 ± 0.018	1.95 ± 0.053	0.971 ± 0.05
CUGGA	1.07 ± 0.09	2.02 ± 0.043	1.84 ± 0.095	1.09 ± 0.045
AGUCA	0.8 ± 0.087	1.98 ± 0.14	1.73 ± 0.059	0.766 ± 0.027
GCAAG	0.716 ± 0.087	1.97 ± 0.14	1.66 ± 0.062	0.9 ± 0.035
CAUUC		2.07 ± 0.066	1.92 ± 0.099	
AUGUC	0.983 ± 0.034	1.99 ± 0.11	1.84 ± 0.066	0.935 ± 0.12
GAAAA	0.381 ± 0.0065	1.96 ± 0.033	1.3 ± 0.14	0.809 ± 0.014
GAAAG	1.046 ± 0.0068	1.96 ± 0.022	1.66 ± 0.044	1.08 ± 0.14
